{"source": "paper PMC10914628", "about": "(Nature Chemistry, 2024)", "proteins": {"B1": {"name": "p97-ND1L-ΔCys-F360C-A413C (domain or fragment)", "chain": "not shown", "modifications": "C360 and C413 joined between subunits by bismaleimidoethane (BMOE) in the cross-linked sample", "notes": "human p97 (VCP), UniProt P55072, residues 1-480; ΔCys: C69V-C77V-C105A-C174A-C184W-C209V-C415A, plus F360C and A413C; also called cysteine-free p97 variant with F360C and A413C; source: E. coli BL21(DE3), purified (Ni-NTA, TEV cleavage, SEC on Superdex 200; apyrase digestion); reduced with DTT and gel-filtered before cross-linking; not shown: His6, N-terminal, cleaved"}}, "biological_target": "the molecule itself", "assay": "SEC; apo state; Superdex 200 in crosslinking buffer (20 mM HEPES pH 7.2, 250 mM KCl, 5 mM EDTA), before and after cross-linking", "data": [{"protein": "B1", "values": [{"measurement": "stoichiometry N", "value": 6}]}]}
